# T1: His6-MBP-CTC1–STN1–TEN1 (human, UniProt Q2NKJ3 1-1217; Q9H668 1-368; Q86WV5 1-123, RED-tris-NTA second-generation dye on the His6 tag)
# T1 chain 1: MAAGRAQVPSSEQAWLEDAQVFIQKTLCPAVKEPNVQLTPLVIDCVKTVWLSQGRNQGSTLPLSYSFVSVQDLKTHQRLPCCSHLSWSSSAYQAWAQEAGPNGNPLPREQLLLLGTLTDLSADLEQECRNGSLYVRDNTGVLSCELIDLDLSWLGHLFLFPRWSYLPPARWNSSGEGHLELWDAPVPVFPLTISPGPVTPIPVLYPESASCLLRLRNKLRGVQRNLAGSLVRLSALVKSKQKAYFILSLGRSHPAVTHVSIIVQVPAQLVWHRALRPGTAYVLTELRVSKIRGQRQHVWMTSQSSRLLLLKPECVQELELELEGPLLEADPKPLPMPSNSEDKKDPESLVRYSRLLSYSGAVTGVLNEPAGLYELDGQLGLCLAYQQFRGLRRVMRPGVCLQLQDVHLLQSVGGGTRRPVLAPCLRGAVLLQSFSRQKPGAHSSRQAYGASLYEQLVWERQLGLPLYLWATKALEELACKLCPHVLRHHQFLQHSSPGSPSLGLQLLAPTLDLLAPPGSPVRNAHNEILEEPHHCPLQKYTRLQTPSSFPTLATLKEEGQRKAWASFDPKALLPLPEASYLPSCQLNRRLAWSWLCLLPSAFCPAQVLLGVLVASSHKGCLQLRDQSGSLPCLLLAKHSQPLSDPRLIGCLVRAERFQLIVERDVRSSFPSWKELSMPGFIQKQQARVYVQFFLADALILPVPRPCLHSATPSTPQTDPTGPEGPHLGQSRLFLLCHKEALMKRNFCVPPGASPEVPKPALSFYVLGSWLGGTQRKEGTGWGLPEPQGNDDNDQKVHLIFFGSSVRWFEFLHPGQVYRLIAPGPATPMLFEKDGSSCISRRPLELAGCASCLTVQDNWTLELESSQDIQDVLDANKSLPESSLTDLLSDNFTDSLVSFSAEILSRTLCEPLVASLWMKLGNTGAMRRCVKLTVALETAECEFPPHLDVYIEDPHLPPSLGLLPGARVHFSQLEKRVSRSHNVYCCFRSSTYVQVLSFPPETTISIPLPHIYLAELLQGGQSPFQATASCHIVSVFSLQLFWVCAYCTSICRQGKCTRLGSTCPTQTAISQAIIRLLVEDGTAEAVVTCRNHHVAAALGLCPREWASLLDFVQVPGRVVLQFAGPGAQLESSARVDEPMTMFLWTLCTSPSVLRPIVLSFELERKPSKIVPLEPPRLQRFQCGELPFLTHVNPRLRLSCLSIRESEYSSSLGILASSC
# T1 chain 2: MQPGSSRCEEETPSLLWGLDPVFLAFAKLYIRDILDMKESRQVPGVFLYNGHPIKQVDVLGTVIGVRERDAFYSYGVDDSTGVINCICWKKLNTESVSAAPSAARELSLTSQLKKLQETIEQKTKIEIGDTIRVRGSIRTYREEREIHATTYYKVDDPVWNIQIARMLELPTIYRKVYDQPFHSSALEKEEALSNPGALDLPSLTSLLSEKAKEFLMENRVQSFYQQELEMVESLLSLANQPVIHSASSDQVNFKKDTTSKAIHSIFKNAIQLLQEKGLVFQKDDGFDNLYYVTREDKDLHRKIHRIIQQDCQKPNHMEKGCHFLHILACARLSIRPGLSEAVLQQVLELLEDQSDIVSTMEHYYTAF
# T1 chain 3: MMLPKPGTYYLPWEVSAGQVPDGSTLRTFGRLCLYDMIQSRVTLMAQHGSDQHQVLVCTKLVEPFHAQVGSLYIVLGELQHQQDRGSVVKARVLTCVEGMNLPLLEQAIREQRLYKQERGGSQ
# B1: POLA1^CTD with the CRL swapped for the S. pombe short loop (domain or fragment, human | S. pombe)
# chain: AQLTDEEKYRDCERFKCPCPTCGTENIYDNVFDGSGTDMEPSLYRCSNIDCKASPLTFTVQLSNKLIMDIRRFIKKYYDGWLICEEPTCRNRTRHLPLQFSRTGPLCPACMKATLQPEYSDKSLYTQLCFYRYIFQTTTGATKVLQDYRKLKNTAEQFLSRSGYSEVNLSKLFAGCAVKS
# notes: short loop of the S. pombe POLA1 orthologue, in place of the human CRL (residues 1400-1424); also called CRL^(S. pombe); source: E. coli Rosetta(DE3), purified (Ni-NTA, Ulp1 cleavage, reverse Ni-NTA, SEC); not shown: His6, N-terminal, cleaved; Smt3, N-terminal, cleaved
# B2: CTC1–STN1–TEN1 (CST) complex (complex, human)
# chain 1: T1 chain 1
# chain 2: T1 chain 2
# chain 3: T1 chain 3
# notes: human CTC1; human STN1; human TEN1; Expressed from pBIG1a(His6-MBP-PreSc-CTC1/STN1/TEN1); tag removed with rhinovirus 3C protease; source: Tni insect cells (baculovirus), purified (Ni-NTA, 3C protease cleavage, heparin, SEC); not shown: His6, N-terminal, cleaved; MBP, N-terminal, cleaved; copies: + +
# B3: POLA1^CTD with the CRL swapped for a GGSGGS-linker (domain or fragment, human)
# chain: AQLTDEEKYRDCERFKCPCPTCGTENIYDNVFDGSGTDMEPSLYRCSNIDCKASPLTFTVQLSNKLIMDIRRFIKKYYDGWLICEEPTCRNRTRHLPLQFSRTGPLCPACMKATLQPEYSDKSLYTQLCFYRYIFDAEGGSGGSTPKVLQDYRKLKNTAEQFLSRSGYSEVNLSKLFAGCAVKS
# notes: linker in place of the CRL (residues 1403-1422); also called CRL^GGSGGS; source: E. coli Rosetta(DE3), purified (Ni-NTA, Ulp1 cleavage, reverse Ni-NTA, SEC); not shown: His6, N-terminal, cleaved; Smt3, N-terminal, cleaved
# B4: POLA1^CTD with the wild-type CRL (domain or fragment, human, UniProt P09884 1265-1462, looked up)
# chain: AQLTDEEKYRDCERFKCPCPTCGTENIYDNVFDGSGTDMEPSLYRCSNIDCKASPLTFTVQLSNKLIMDIRRFIKKYYDGWLICEEPTCRNRTRHLPLQFSRTGPLCPACMKATLQPEYSDKSLYTQLCFYRYIFDAECALEKLTTDHEKDKLKKQFFTPKVLQDYRKLKNTAEQFLSRSGYSEVNLSKLFAGCAVKS
# notes: also called CRL^WT; source: E. coli Rosetta(DE3), purified (Ni-NTA, Ulp1 cleavage, reverse Ni-NTA, SEC); not shown: His6, N-terminal, cleaved; Smt3, N-terminal, cleaved
# Columns and labels:
# [1] = biological target: CTC1–STN1–TEN1 (CST) complex (human) (UniProt Q2NKJ3); test: cryo-EM structure; CST and Polα/primase (PP^FL or PP^ΔN) mixed equimolar (1.5 μM each) with (GGTTAG)3 ssDNA, cross-linked by GraFix (glutaraldehyde, glycerol gradient), 20 mM HEPES pH 7.5, 150 mM NaCl, 10 mM MgCl2, 0.5 mM TCEP
# His6-MBP-CTC1–STN1–TEN1 [2] = biological target: T1, His6-MBP-CTC1–STN1–TEN1; test: MST; binding event 2 (second site), independent experiment 1
# His6-MBP-CTC1–STN1–TEN1 [3] = biological target: T1, His6-MBP-CTC1–STN1–TEN1; test: MST; binding event 2 (second site), independent experiment 2
# His6-MBP-CTC1–STN1–TEN1 [4] = biological target: T1, His6-MBP-CTC1–STN1–TEN1; test: MST; binding event 2 (second site), independent experiment 3
# His6-MBP-CTC1–STN1–TEN1 [5] = biological target: T2, His6-MBP-CTC1–STN1–TEN1 (human, UniProt Q2NKJ3 1-1217; Q9H668 1-368; Q86WV5 1-123, RED-tris-NTA second-generation dye on the His6 tag); test: MST; 50 nM RED-tris-NTA-labeled His6-MBP-CST with serial dilutions of unlabeled POLA1^CTD constructs; room temperature; 20 mM HEPES pH 7.5, 150 mM NaCl, 5 mM DTT, 0.05% Tween-20; CRL^WT data split into two binding events; conditions: both partners purified
# T2 construct: human CTC1; human STN1; human TEN1; A PreScission site lies between MBP and CTC1; also called His6-MBP-CST; fluorescently labeled CST; source: Tni insect cells (baculovirus), purified (Ni-NTA, heparin, SEC; protease-cleavage step omitted); not shown: His6, N-terminal, kept; MBP, N-terminal, kept; copies: + +
# [6] = biological target: T3, full-length Polα/primase (POLA1^FL/POLA2/PRIM1/PRIM2) (human, UniProt P09884 1-1462; Q14181 1-598; P49642 1-420; P49643 1-509); test: SEC; purified proteins mixed (PP^FL and CST equimolar; CST with twofold molar excess of His6-MBP-POLA1^N), 1 h at 4 °C, HiLoad Superdex 200 16/600 PG, 20 mM HEPES pH 7.5, 150 mM NaCl, 0.5 mM TCEP, 5% glycerol; conditions: both partners purified
# T3 construct: human POLA2; human PRIM1; human PRIM2; The methods describe no tag cleavage for this complex (PreSc site after MBP, TEV site after StrepII); also called PP^FL; DNA polymerase α–primase; source: Tni insect cells (baculovirus), purified (Ni-NTA, RESOURCE Q, SEC); copies: + + +
# His6-MBP-CTC1–STN1–TEN1 [7] = biological target: T1, His6-MBP-CTC1–STN1–TEN1; test: MST; binding event 1, independent experiment 1
# His6-MBP-CTC1–STN1–TEN1 [8] = biological target: T1, His6-MBP-CTC1–STN1–TEN1; test: MST; binding event 1, independent experiment 2
# His6-MBP-CTC1–STN1–TEN1 [9] = biological target: T1, His6-MBP-CTC1–STN1–TEN1; test: MST; binding event 1, independent experiment 3
# T3 sequence (Q14181 whole entry, chain 2 of 3): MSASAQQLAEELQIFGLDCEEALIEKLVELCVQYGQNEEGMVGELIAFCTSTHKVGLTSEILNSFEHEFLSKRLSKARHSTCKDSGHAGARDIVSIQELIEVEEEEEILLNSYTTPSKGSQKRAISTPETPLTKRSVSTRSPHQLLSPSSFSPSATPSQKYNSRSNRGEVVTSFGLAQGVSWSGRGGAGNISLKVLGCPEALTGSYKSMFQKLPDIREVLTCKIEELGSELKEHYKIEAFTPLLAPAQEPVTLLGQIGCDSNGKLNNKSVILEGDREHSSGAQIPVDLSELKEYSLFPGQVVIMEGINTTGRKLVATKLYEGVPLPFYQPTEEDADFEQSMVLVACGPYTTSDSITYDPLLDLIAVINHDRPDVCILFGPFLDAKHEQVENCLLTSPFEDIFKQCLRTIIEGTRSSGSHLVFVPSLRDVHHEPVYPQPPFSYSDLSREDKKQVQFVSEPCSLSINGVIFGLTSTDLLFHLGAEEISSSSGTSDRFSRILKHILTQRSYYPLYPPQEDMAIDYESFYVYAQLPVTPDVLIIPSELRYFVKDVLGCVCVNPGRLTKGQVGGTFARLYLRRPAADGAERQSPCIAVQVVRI
# T3 sequence (P49642 whole entry, chain 3 of 3): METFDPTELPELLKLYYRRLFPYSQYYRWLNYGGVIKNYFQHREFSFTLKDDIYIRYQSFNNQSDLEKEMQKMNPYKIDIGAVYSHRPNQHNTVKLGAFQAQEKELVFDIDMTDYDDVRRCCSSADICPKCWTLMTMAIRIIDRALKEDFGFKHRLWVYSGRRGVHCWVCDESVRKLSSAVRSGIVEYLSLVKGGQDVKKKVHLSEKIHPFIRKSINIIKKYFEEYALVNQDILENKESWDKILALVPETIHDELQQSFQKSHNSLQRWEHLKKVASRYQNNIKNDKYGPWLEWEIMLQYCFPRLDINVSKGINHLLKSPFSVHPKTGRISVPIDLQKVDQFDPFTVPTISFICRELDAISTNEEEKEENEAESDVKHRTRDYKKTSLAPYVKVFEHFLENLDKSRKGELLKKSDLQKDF
# T3 sequence (P49643 whole entry, chain 4 of 3): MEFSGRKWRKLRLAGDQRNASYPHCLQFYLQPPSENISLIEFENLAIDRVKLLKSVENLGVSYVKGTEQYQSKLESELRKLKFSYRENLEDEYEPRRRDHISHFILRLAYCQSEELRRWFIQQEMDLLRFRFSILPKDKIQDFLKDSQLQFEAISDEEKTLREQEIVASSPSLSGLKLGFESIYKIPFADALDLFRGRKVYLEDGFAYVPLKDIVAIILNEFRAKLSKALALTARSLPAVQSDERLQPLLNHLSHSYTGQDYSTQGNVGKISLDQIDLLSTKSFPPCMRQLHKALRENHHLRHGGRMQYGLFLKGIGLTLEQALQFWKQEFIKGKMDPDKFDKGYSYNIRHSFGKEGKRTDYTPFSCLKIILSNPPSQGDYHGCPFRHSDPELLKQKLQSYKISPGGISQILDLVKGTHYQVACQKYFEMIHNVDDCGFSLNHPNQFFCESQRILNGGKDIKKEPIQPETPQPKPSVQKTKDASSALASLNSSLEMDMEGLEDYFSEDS
Molecule,stoichiometry N [1],Kd (His6-MBP-CTC1–STN1–TEN1 [2]) [µM],Kd (His6-MBP-CTC1–STN1–TEN1 [3]) [µM],Kd (His6-MBP-CTC1–STN1–TEN1 [4]) [µM],KD of binding event 2 (His6-MBP-CTC1–STN1–TEN1 [5]) [µM],binding result [6],Kd (His6-MBP-CTC1–STN1–TEN1 [7]) [µM],Kd (His6-MBP-CTC1–STN1–TEN1 [8]) [µM],Kd (His6-MBP-CTC1–STN1–TEN1 [9]) [µM],KD of binding event 1 (His6-MBP-CTC1–STN1–TEN1 [5]) [µM]
"full-length Polα/primase (POLA1^FL/POLA2/PRIM1/PRIM2), P09884 1-1462; Q14181 1-598; P49642 1-420; P49643 1-509",1,,,,,,,,,
B1,,134,75,77,~88,,,,,
B2,,,,,,binds,,,,
B3,,133,79,82,~96,,,,,
B4,,56,216,156,~122,,1.4,13,14,~3.3
